Laboratory results from the supplement of paper PMC10567573.
± gives the standard deviation.

Assay: protein stability index of a GFP-peptide fusion (GPS, HEK-293T) (PSI 1-6); higher = more stable
Conditions: c terminus: a fixed tail appended
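Note: 24-mer peptide tiles fused after GFP, lentivirally expressed, FACS-sorted into six equal bins by GFP/DsRed ratio, decoded by Illumina sequencing, PSI is the read-weighted mean bin number.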

Row | Sequence | protein stability index (treatment: DMSO) | protein stability index (treatment: MLN4924 1 uM, 8 h)
1 | AEKLKVQALKDRGLSIPRADTLDE [LSM1] | 4.93 ± 0.3 | 4.98 ± 0.22
2 | TGFLIIILAIIAKEGDCAPEEKIW [MAGEA6] | 2.93 ± 0.65 | 2.71 ± 0.61
3 | AAAEFSSLLRRIKGKLFTWNILKT [SLC35F2] | 3.05 ± 0.56 | 2.94 ± 0.28
4 | GRLILSTIRLRPRQVLCEKCKSTL [PWWP2B] | 2.2 ± 0.4 | 2.56 ± 0.55
5 | LEFYRYYQQLKLEGPGEQETKLDL [SLC29A1] | 2.953 ± 0.027 | 3.11 ± 0.35
6 | YAPEAPYTSPDKLKDIFMFITRQL [PDS5B] | 2.59 ± 0.28 | 1.97 ± 0.34
7 | FETQLKTLCQFPETLLGDPKRRMR [KCNA3] | 3.54 ± 0.35 | 3.65 ± 0.28
8 | SNHSWNTQTWCTQSWNNQAWNSPF [NANOGP8] | 2.24 ± 0.23 | 2.19 ± 0.18
9 | AIRRRNVRGEDSGRKPERRRLKTT [DAPK3] | 4.644 ± 0.043 | 4.69 ± 0.9
10 | KTVLMIAIQLLSRMEYVHSKNLIY [CSNK1G1] | 3.04 ± 0.1 | 3.23 ± 0.54
11 | VIKENDPSGFLQISDALIRRVHLT [TRIM9] | 2.07 ± 0.26 | 2.39 ± 0.34
12 | RRLRDMVERPHSGLPGKVFACLSV [KCNG1] | 2.47 ± 0.49 | 2.4 ± 0.49
13 | KRKMVSWEASSLGLVTAALHMVIV [KMT2E] | 2.53 ± 0.62 | 3.33 ± 0.57
14 | RETVLIETQLKACASFIRTRLLLQ [C8orf76] | 2.88 ± 0.57 | 2.9 ± 0.71
15 | NMKNGANDVKHHRWFRSVDWEAVP [PRKX] | 2.95 ± 0.33 | 3.08 ± 0.33
16 | FEREPSTSDLGTTDVQKKKLVDAI [RIPK4] | 4.62 ± 0.084 | 4.87 ± 0.29
17 | LHKQTASDLLDEKEIAKNLIQPIN [FEM1C] | 3.38 ± 0.22 | 3.89 ± 0.18
18 | AKNLQEAEEWYKSKYADLSDAANR [PRPH] | 4.43 ± 0.18 | 4.48 ± 0.22
19 | GEESSKAKEVTIAKADTTSTVTPV [EHMT1] | 5.55 ± 0.27 | 5.45 ± 0.078
20 | THMYLQSDDEMELEETEPPLEPED [P3H4] | 5.4 ± 0.2 | 5.38 ± 0.29
21 | SYMLQDSLEHVQLFDLMRRMLEFD [CLK3] | 2.35 ± 0.027 | 2.47 ± 0.21
22 | SPPSSSAASSYSFSDLNSTRGDAD [EMD] | 5.12 ± 0.29 | 4.98 ± 0.2
23 | SSSYSPETFRQQFRQFGYQDSPGP [ZNF396] | 3.48 ± 0.23 | 3.24 ± 0.21

Row | Sequence | protein stability index (treatment: DMSO) | protein stability index (treatment: MLN4924 1 uM, 8 h)
24 | QKLQDVLHEALQDYEAGQHMEDPR [ESRRG] | 4.72 ± 0.34 | 5.13 ± 0.26
25 | ETPQPSPPGGSGSEPYKLLPGAVA [HNF4A] | 5.06 ± 0.21 | 4.92 ± 0.11
26 | PLLSNTFTETNNHWPQGPTGPPGP [EMID1] | 3.53 ± 0.33 | 4.08 ± 0.14
27 | SWVLSMLYGFLLTFGFITMTPQLF [CLPTM1] | 3.21 ± 0.47 | 3.03 ± 0.16
28 | ANAFQQEAQTSGKERLLLSAAVPA [CHIT1] | 4.03 ± 0.33 | 4.18 ± 0.28
29 | DGDDKVFRRAPSWRKRFRPREHHG [PPFIA4] | 3.48 ± 0.55 | 4.58 ± 0.14
30 | WLNKEKGIFKIEDSAQVARLWGIR [SPDEF] | 2.63 ± 0.32 | 2.35 ± 0.17
31 | VLQERVRIFAHKIYLSTSSSKFYD [RHOBTB2] | 2.6 ± 0.54 | 2.33 ± 0.46
32 | GVMLYTLLVGRYPFHDSDPSALFS [TRIB1] | 2.52 ± 0.37 | 2.7 ± 0.46
33 | WKIAPAMAAGNTVIAKPSELTSVT [ALDH8A1] | 3.12 ± 0.41 | 3.17 ± 0.53
34 | EEEEEEEGSGHSTGEDSAFQEPDS [WEE1] | 5.7 ± 0.16 | 5.62 ± 0.11
35 | YYLALLLSLLVMVISPVIQLQPTF [NSDHL] | 2.68 ± 0.37 | 2.91 ± 0.64
36 | FAESLQCKVDCEANLTPNVGGYFV [P3H4] | 2.22 ± 0.9 | 2.42 ± 0.65
37 | EITTQFLIYASYFALIAVVFLASG [SLC19A2] | 3.12 ± 0.9 | 3.33 ± 0.31
38 | RALRKMVSNMSGPSGEEEAKVGPG [CBY2] | 4.82 ± 0.23 | 4.87 ± 0.25
39 | EPSFAQFSQEIGLASLGASEEAVQ [TPH1] | 5.17 ± 0.61 | 4.99 ± 0.37
40 | YSAAALQEAMKRLRGAKAFRLPGL [FCHO1] | 2.3 ± 0.076 | 2.42 ± 0.2
41 | TFHDSKHNIVHVHFDATRGWLLTS [WDFY2] | 2.44 ± 0.31 | 2.17 ± 0.13
42 | GTDEEEEEFIEEEDQEEEESTEGK [TRIM63] | 5.71 ± 0.17 | 5.56 ± 0.24
43 | DWFTSYVKNVVSGGFPIIRDQIFR [FBXO3] | 2.61 ± 0.34 | 2.41 ± 0.39
44 | HRRIHTGEKPYECQDCGRAFNQNS [ZNF8] | 3.75 ± 0.53 | 4.1 ± 0.27
45 | MPALEGAPHTPPLPRRPRKGSSEL [RNF208] | 5.11 ± 0.27 | 5.21 ± 0.22
46 | PDTMEKLRTHIDAIILALPEDLQG [DENND6A] | 3.02 ± 0.5 | 3.02 ± 0.23

Row | Sequence | protein stability index (treatment: DMSO) | protein stability index (treatment: MLN4924 1 uM, 8 h)
47 | GTAHIPPTMHLESPALQVMGPAQE [ZNF449] | 4.78 ± 0.25 | 4.73 ± 0.17
48 | HPTPFLAFLRRVKTCNPPDAGPMV [PTPRD] | 2.37 ± 0.12 | 2.26 ± 0.18
49 | FATPEREMRISESAASGARFPLDS [PCDHGC5] | 4.44 ± 0.11 | 4.57 ± 0.3
50 | ATTISTSEDGSYGTDVTRCICGFT [KMT2E] | 3.46 ± 0.21 | 3.6 ± 0.39
51 | TKITSAFKYINTVISCTIFIVGMV [EDNRA] | 2.91 ± 1.1 | 2.48 ± 1
52 | AQTTSEAAMEGATLDQTTSEEAPG [HDAC6] | 5.64 ± 0.28 | 5.54 ± 0.24
53 | EDSILGDPKKLLTQHFVQENYLEY [MAGEA3] | 3.75 ± 0.36 | 3.79 ± 0.28
54 | WEWNELIPQGICPVGRSWHSLTPV [KLHDC2] | 2.16 ± 0.27 | 2.27 ± 0.21
55 | STRPEEGCSLHEEDTQRHETYHQQ [TCAP] | 5.47 ± 0.21 | 5.47 ± 0.2
56 | FWNFKQMWDSKKIGLRQHHCRKCG [WDFY2] | 2.34 ± 0.28 | 2.66 ± 0.45
57 | SLCVLVSTVGKLCRLINEDVNEQV [CEP70] | 3.25 ± 0.48 | 2.96 ± 0.21
58 | HPFFDTAEPDMDDPAYIAVLVLIF [INTS4] | 2.61 ± 0.57 | 2.66 ± 0.62
59 | PPENSDSGTGKKEKEKKNRKGKDK [EIF5] | 5.58 ± 0.21 | 5.48 ± 0.28
60 | LQLNARSFMMGQGGEAAHHTRSPY [NEUROD6] | 2.99 ± 0.22 | 3.37 ± 0.32
61 | FSETHADPHNSRRGFFFSHVGWLL [SCD] | 2.66 ± 0.29 | 2.15 ± 0.21
62 | HQMGVVHRDLKPENLLLASKLKGA [CAMK2A] | 3.73 ± 0.21 | 3.82 ± 0.12
63 | LLEQGAQVNRRSAKGNTALHDCAE [FEM1A] | 4.81 ± 0.22 | 4.9 ± 0.23
64 | VAETECRYALQLQQIQGLISSIEA [KRT13] | 2.72 ± 0.15 | 2.63 ± 0.2
65 | KPEEPPQNLLREKIMKLPLPESLK [PCMTD1] | 4.57 ± 0.43 | 4.76 ± 0.13
66 | SVWGYDLGLRSLIPAVLTVSMLGY [MYORG] | 3.05 ± 0.29 | 3.06 ± 0.4
67 | FDIARIERCNQLLRALKLVITALK [ZER1] | 2.33 ± 0.6 | 2.41 ± 0.37
68 | EPSIAPTSCAGNLPSRPPPLLSPL [RSPH3] | 3.72 ± 0.2 | 3.83 ± 0.14
69 | VVIDKHPVRFFVHKRPHVDFFLEV [CTDNEP1] | 2.22 ± 1.1 | 3.06 ± 0.87

Row | Sequence | protein stability index (treatment: DMSO) | protein stability index (treatment: MLN4924 1 uM, 8 h)
70 | LIETYTGLMSFIGNRNKLGYSLAR [TPRG1] | 2.31 ± 0.31 | 2.21 ± 0.16
71 | CLRDDVVFFIYLYQRWIYRVDPTR [CLPTM1] | 2.77 ± 0.35 | 2.81 ± 0.48
72 | KNDSLRKRYDGLKYDVKKVEEVVY [TSN] | 3.18 ± 0.22 | 3.32 ± 0.33
73 | LIILASGGPQALVNIMRTYTYEKL [CTNNB1] | 3.04 ± 0.21 | 3.35 ± 0.76
74 | PNALIASLALGDLIYVVIDLPINV [EDNRA] | 3.12 ± 0.42 | 3.03 ± 0.35
75 | HCLHSAGHSQPDGAYSSASSFSRP [DLX1] | 3.53 ± 0.27 | 3.61 ± 0.17
76 | EGASPLSERCQRQLQSLCRGLGLG [FANCE] | 3.31 ± 0.13 | 3.02 ± 0.32
77 | GKSPSITFEYTLLQPPHESRPQPI [ADAMTSL2] | 2.83 ± 0.4 | 2.83 ± 0.29
78 | GGRKGRTLLLQGHHDKVQSLCYLQ [WDFY1] | 2.54 ± 0.095 | 2.73 ± 0.32
79 | KHGKRKRGRPRKLSKEYWDCLEGK [ELF3] | 4.18 ± 0.44 | 4.38 ± 0.18
80 | QYWLDGKIIAVGVIDILPNCVSSV [ATE1] | 2.93 ± 0.54 | 2.95 ± 0.66
81 | PEWDTVTPEAKDLINKMLTINPSK [CAMK2A] | 4.886 ± 0.036 | 5.03 ± 0.12
82 | PSGSSGSLSTSSSSSPPGTPSPAD [CEBPB] | 5.53 ± 0.31 | 5.46 ± 0.069
83 | QWGTVCDDDFSIHAAHVVCRELGY [LOXL2] | 2.47 ± 0.36 | 2.38 ± 0.39
84 | GGSKYLIYRRYRQFHALQSKLEER [NCF4] | 2.45 ± 0.35 | 2.45 ± 0.33
85 | EVDVQEAGAGWWVGAAYASLRRRG [TRIM14] | 3.4 ± 0.28 | 3.38 ± 0.4
86 | RDYAPPSRGYAYRDNGHSNRDEHS [RBMY1A1] | 4.59 ± 0.11 | 4.57 ± 0.36
87 | MREMFFEDHIDDAKYCGHLYGLGS [CNOT7] | 2.68 ± 0.093 | 2.44 ± 0.28
88 | GFTDRREARKYASNLLKAGFIRHT [DVL3] | 2.66 ± 0.28 | 2.71 ± 0.32
89 | ELQSLMHQPKGLEEENAQLRGALQ [PBXIP1] | 4.25 ± 0.23 | 4.04 ± 0.29
